Assay results from patent CN113461812A (BEIJING LUFEI BIOTECHNOLOGY CO LTD, dated 2021).

Assays:
新型冠状病毒(假病毒) S蛋白 = 新型冠状病毒(假病毒) S蛋白 (SARS-CoV-2, UniProt P0DTC2 14-1273); assay: cell-based or functional assay
新型冠状病毒RBD蛋白 (野生型) = molecular target: T1, 新型冠状病毒RBD蛋白 (野生型) (SARS-CoV-2, UniProt P0DTC2 319-541); assay: SPR (Biacore), 1:1 binding fit
T1 construct: domain: RBD; also called WT; 新冠病毒RBD蛋白野生型

B1: 人源化新冠病毒中和性抗体nCoV-00D (antibody, V domains shown)
VH: QVQLQQSGAELVKPGASVKLSCKTSGYTFTRYYIYWVKQRPGQGLEWIGEINPNNGGTNFNEKFKSKATLTVDKSSNTAYMQLSSLTSEDSAVYYCTIFITTVIARDYWGQGTLVTVSA
VL: DIVLTQSPASLAVSLGQRATISCRASESVEYSGTTLMQWFQQKPGQPPKLLIYAASNVESGVPARFSGSGSGTDFSLNIHPVEEDDVAMYFCHQSREVPWTFGGGTKLEIKR
notes: also called nCoV-00D抗体
For B1, the “IC50, 假病毒中和试验 (Huh7细胞, 荧光素酶值)” value (新型冠状病毒(假病毒) S蛋白) was roughly 9 ng/mL, the Kd (新型冠状病毒RBD蛋白 (野生型)) was 0.532 nM and the koff (新型冠状病毒RBD蛋白 (野生型)) was 0.000133 s⁻¹. The kon (新型冠状病毒RBD蛋白 (野生型)) was 251000 M⁻¹ s⁻¹.
